For orientation: Kd means the equilibrium constant for the complex coming apart.

Data on 4 molecules can be found in paper PMC4535883, “A Single-Strand Annealing Protein Clamps DNA to Detect and Secure Homology”.

Data set [1] concerns the target T1, Redβ (single-strand annealing protein) (bacteriophage lambda, UniProt P03698 1-261).
T1 sequence: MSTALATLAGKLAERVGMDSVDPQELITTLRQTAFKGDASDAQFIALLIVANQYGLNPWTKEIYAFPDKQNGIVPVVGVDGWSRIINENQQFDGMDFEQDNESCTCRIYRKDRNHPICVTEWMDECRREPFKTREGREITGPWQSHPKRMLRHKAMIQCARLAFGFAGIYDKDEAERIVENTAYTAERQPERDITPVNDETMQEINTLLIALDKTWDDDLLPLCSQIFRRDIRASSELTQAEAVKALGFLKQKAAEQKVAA
Nature of the data set: optical tweezers; preassembled filament, 750 nM Redβ; >20% of traces >100 pN; Buffer composition not in the material; optical tweezers at 29.2 °C. The settings on record: protein: recombinant; tags: StrepII (stated for the purified protein used as western blot standard); 25 bp duplex, ssDNA spacers on both sides.

Data set [2] concerns the target T1, Redβ (single-strand annealing protein). Nature of the data set: optical tweezers; preassembled filament; unzipping forces >200 pN, step 10 ± 2 bp; Buffer composition not in the material; optical tweezers at 29.2 °C. The settings on record: protein: recombinant; tags: StrepII (stated for the purified protein used as western blot standard); 123 bp duplex, ssDNA spacers on both sides. (In western blotting, separated proteins are transferred to a membrane and probed.)

Data set [3] shares this target. Nature of the data set: CD; filament formed by Redβ annealing; CD shift at 210-220 nm; Buffer composition not in the material; optical tweezers at 29.2 °C. To be noted: protein: recombinant; tags: StrepII (stated for the purified protein used as western blot standard); blunt; strands annealed by Redβ.
The target is the same in data set [4]. Nature of the data set: FCS/FCCS; per single binding site of Redβ monomer; global fit of isodesmic growth model; Buffer composition not in the material; optical tweezers at 29.2 °C. To be noted: protein: recombinant; tags: StrepII (stated for the purified protein used as western blot standard); label: Atto 655 (5').
Data set [5] shares this target. Nature of the data set: FCCS; half of ssDNA bound; about 30% bound at 100 nM; Hill coefficient close to 1; Buffer composition not in the material; optical tweezers at 29.2 °C. The settings on record: protein: recombinant; tags: StrepII (stated for the purified protein used as western blot standard); label: Atto 655 (5').
For data set [6] the target is unchanged. Nature of the data set: FCS/FCCS; effective KEpstein for 30-b ssDNA, calculated as Kd/21; Buffer composition not in the material; optical tweezers at 29.2 °C. To be noted: protein: recombinant; tags: StrepII (stated for the purified protein used as western blot standard); label: Atto 655 (5').

B1: 25 bp high-force unzipping linker (dsDNA)
DNA 1: TGTTTAGTATGAGTCGAAATTCTTACGGCGTGTCAGAGAGGC
DNA 2: TGACAGGAAACAGCACGCCAGCCTCTCTGACACGCCGTAAGAATTCGATAGGCAGCAGATTCTCTTTTCACCTTC
modifications: 5' phosphate on overhang A
B1: in data set [1], the binding result is recorded as “binds”.

B2: 123 bp high-force unzipping linker (dsDNA)
DNA 1: TGTTTAGTATGAGTCGAAATTCTTACGGCGTGTCAGAGAGGCAATGGCTTGACTTGTGGTGGATCACAGTTTGTGAGTAACGGCAAGATGCGGTAAACACTGTAATGCGAGCTTCATTGACTCGGCTTAAAGTTCCTGGT
DNA 2: TGACAGGAAACAGCACGCCAACCAGGAACTTTAAGCCGAGTCAATGAAGCTCGCATTACAGTGTTTACCGCATCTTGCCGTTACTCACAAACTGTGATCCACCACAAGTCAAGCCATTGCCTCTCTGACACGCCGTAAGAATTCGATAGGCAGCAGATTCTCTTTTCACCTTC
modifications: 5' phosphate on overhang A
Regarding B2, the binding result in data set [2] is recorded as “binds”.

B3: CD 44-mer pair ssDNACD(1)+(2) (dsDNA)
DNA 1: GTAGAGTATAAGCACAGAGAGGATAGAGAACAATGGAGCGGGTGT
DNA 2: ACACCCGCTCCATTGTTCTCTATCCTCTCTGTGCTTATACTCTAC
For the molecule B3, the binding result in data set [3] is listed as “binds”.

B4: ssDNA FCS 30 b (ssDNA)
DNA: ATGCCTCTCACTCGTCATCTTGTTTAGTAT
As to B4, the values for the Kd in data set [4] and in data set [6] were 5 ± 0.2 µM and about 0.24 µM, respectively. The “apparent K (half saturation)” value in data set [5] was about 300 nM.
